Patent US20240166765A1 (ICONIC THERAPEUTICS, published 2024)
Substitutions are numbered along the chain they refer to.

B1: 1G (antibody, V domains shown)
VH: EVQLLESGGGLVQPGGSLRLSCAASGFTFSSYAMAWVRQAPGKGLEWVSAISGSGGLTYYADSVKGRFTISRDNSKNTLYLQMNSLRAEDTAVYYCAKAPYGYYMDVWGKGTTVTVSS
VL: not shown
notes: Human anti-TF IgG1
B2: 29D (antibody, V domains shown)
VH: QVQLVESGGGVVQPGRSLRLSCAASGFTFHSRGMHWVRQAPGKGLEWVAVITYDGINKYYADSVEGRFTISRDNSKNTLYLQMNSLRAEDTAVYYCARDGVYYGVYDYWGQGTLVTVSS
VL: not shown
notes: Human anti-TF IgG1
B3: 29E (antibody, V domains shown)
VH: B2 VH with H30R, R32Y
VL: not shown
notes: Human anti-TF IgG1
B4: 39A (antibody, V domains shown)
VH: QVQLVQSGAEVKKPGSSVKVSCKASGGTFSSNAIGWVRQAPGQGLEWMGSIIPIIGFANYAQKFQGRVTITADESTSTAYMELSSLRSEDTAVYYCARDSGYYYGASSFGMDVWGQGTTVTVSS
VL: EIVMTQSPATLSVSPGERATLSCRASQSVSSNLAWYQQKPGQAPRLLIYGASTRATGIPARFSGSGSGTEFTLTISSLQSEDFAVYYCEQYNNLPLTFGGGTKVEIK
notes: Human anti-TF IgG1
B5: 54E (antibody, V domains shown)
VH: QVQLVQSGAEVKKPGASVKVSCKASGYTFANYYMHWVRQAPGQGLEWMGIINPSGGITVYAQKFQGRVTMTRDTSTSTVYMELSSLRSEDTAVYYCARGGSKVAALAFDIWGQGTMVTVSS
VL: DIQMTQSPSSLSASVGDRVTITCQASQDISNSLNWYQQKPGKAPKLLIYDASNLETGVPSRFSGSRSGTDFTFTISSLQPEDIATYYCQQYNFHPLTFGGGTKVEIK
notes: Human anti-TF IgG1
B6: 25A3 (antibody, human IgG1, kappa, V domains shown)
VH: QVQLVQSGAEVKKPGASVKVSCKASGYTFDVYGISWVRQAPGQGLEWMGWIAPYSGNTNYAQKLQGRVTMTTDTSTSTAYMELRSLRSDDTAVYYCARDAGTYSPFGYGMDVWGQGTTVTVSS
VL: DIQMTQSPSTLSASVGDRVTITCQASQSINNWLAWYQQKPGKAPKLLIYKAYNLESGVPSRFSGSGSGTEFTLTISSLQPDDFATYYCQLFQSLPPFTFGGGTKVEIKR
notes: human IgG1
B7: 43D7 (antibody, human IgG1, kappa, V domains shown)
VH: QVQLQQWGAGLLKPSETLSLTCAVYGGSLSGYYWSWIRQPPGKGLEWIGEIGASGSTRYNPSLKSRVTISVDTSKNQFSLKLSSVTAADTAVYYCARDTPYYYEGGYYYYMDVWGKGTTVTVSS
VL: EIVLTQSPGTLSLSPGERATLSCRASDSVDSSYLAWYQQKPGQAPRLLIYGAFSRANGIPDRFSGSGSGTDFTLTISRLEPEDFAVYYCQQAGVVPYTFGGGTKVEIKR
notes: human IgG1
B8: 43D8 (antibody, human IgG1, kappa, V domains shown)
VH: B7 VH
VL: B7 VL with D27Q, D30S, Y33F, F53Y, N57T
notes: human IgG1; also called 43D8 mAb; test article

Experiments:
[1] = biological target: T1, human Tissue Factor on MDA-MB-231 cells (human, UniProt P13726 33-295); experiment: flow cytometry, MDA-MB-231 cells; binding of 20 nM FVII-Fc-Alexa488 (competitor) left at 250 nM Ab
T1 construct: also called TF; hTF

[2] = biological target: T1, human Tissue Factor on MDA-MB-231 cells; experiment: flow cytometry, MDA-MB-231 cells; binding of 20 nM FVII-Fc-Alexa488 (competitor) left at 28 nM Ab
[3] = biological target: T1, human Tissue Factor on MDA-MB-231 cells; experiment: cell-based or functional assay
[4] = biological target: T1, human Tissue Factor on MDA-MB-231 cells; experiment: flow cytometry, MDA-MB-231 cells; binding of 20 nM FVII-Fc-Alexa488 (competitor) left at 9.25 nM Ab
[5] = biological target: T1, human Tissue Factor on MDA-MB-231 cells; experiment: cell-based or functional assay; remark: listed apart in the source
[6] = biological target: T1, human Tissue Factor on MDA-MB-231 cells; experiment: flow cytometry, MDA-MB-231 cells; binding of 20 nM FVII-Fc-Alexa488 (competitor) left at 83 nM Ab
[7] = biological target: Relipidated TF (UniProt P13726 33-295, limits assumed); experiment: cell-based or functional assay
[8] = biological target: T2, human TF ECD-His6 (human, UniProt P13726 33-251); experiment: SPR (Biacore), antibody on chip, TF-His titrated
T2 construct: made in Expi293 cells; the entry holds the ECD with the C-terminal TG-His6; also called TF-His; hTF

[9] = biological target: T3, cynomolgus TF ECD-His6 (cynomolgus monkey (Macaca fascicularis)); experiment: SPR (Biacore), antibody on chip, TF-His titrated
T3 construct: made in Expi293 cells; also called TF-His; cTF
T3 chain: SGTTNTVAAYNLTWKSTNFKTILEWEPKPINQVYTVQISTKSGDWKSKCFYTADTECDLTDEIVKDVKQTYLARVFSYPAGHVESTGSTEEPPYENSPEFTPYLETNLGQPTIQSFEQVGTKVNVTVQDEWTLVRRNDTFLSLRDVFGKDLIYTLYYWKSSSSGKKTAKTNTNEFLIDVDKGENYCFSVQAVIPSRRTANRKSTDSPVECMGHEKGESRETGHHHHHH

[10] = biological target: T4, hTF_N171H_T197K (human, UniProt P13726 33-251); experiment: live cell staining of transfected HEK293, flow cytometry
T4 construct: the entry already holds N171H and T197K; on transfected HEK293 cells
T4 chain: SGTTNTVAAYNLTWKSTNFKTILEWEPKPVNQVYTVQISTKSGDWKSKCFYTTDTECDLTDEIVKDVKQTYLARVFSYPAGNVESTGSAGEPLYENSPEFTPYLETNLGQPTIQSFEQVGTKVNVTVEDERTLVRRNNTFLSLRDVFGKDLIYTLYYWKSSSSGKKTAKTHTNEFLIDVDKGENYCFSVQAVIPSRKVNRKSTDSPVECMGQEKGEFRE

[11] = biological target: rTF (rat TF) on HEK293 cells (rat, UniProt P42533 29-252); experiment: as above
[12] = biological target: T2, human TF ECD-His6; experiment: BLI (ForteBio Octet)
[13] = biological target: T3, cynomolgus TF ECD-His6; experiment: BLI (ForteBio Octet)
[14] = biological target: T5, mouse TF ECD-His6 (mouse, UniProt P20352 29-251); experiment: BLI (ForteBio Octet)
T5 construct: made in Expi293 cells; also called TF-His; mTF

[15] = biological target: T5, mouse TF ECD-His6; experiment: SPR (Biacore), antibody on chip, TF-His titrated

Chain of rTF (rat TF) on HEK293 cells (P42533 29-252): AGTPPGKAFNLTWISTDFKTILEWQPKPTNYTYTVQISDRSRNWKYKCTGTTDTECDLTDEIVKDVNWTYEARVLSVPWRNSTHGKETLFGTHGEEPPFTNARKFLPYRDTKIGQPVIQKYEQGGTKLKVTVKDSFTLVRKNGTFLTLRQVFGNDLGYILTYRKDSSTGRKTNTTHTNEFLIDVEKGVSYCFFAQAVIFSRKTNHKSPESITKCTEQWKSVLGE

Binder | % FVIIa [1] [%] | % FVIIa [2] [%] | % IL8, 2.56 nM Ab [3] [%] | % IL8, 6.4 nM Ab [3] [%] | % IL8, 16 nM Ab [3] [%] | % IL8, 40 nM Ab [3] [%] | % IL8, 100 nM Ab [3] [%] | % FVIIa [4] [%] | % FXa, 12.5 nM Ab [5] [%] | % FXa, 25 nM Ab [5] [%] | % FXa, 50 nM Ab [5] [%] | % FXa, 100 nM Ab [5] [%] | % FVIIa [6] [%] | Kd [14] [nM] | other results
B1 | 6 | 7 | 26 | 4 | 3 | 2 | 2 | 7 | 55 | 48 | 41 | 41 | 7 |  | 
B2 | 3 | 4 | 27 | 6 | 2 | 2 | 1 | 6 | 85 | 77 | 75 | 75 | 3 |  | 
B3 | 2 | 3 | 33 | 5 | 2 | 2 | 2 | 5 | 81 | 68 | 63 | 66 | 2 |  | TGA % ETP, 10 nM Ab, 10 min pre-incubation [7]: 73%; TGA % ETP, 50 nM Ab, 10 min pre-incubation [7]: 68%; TGA % ETP, 100 nM Ab, 10 min pre-incubation [7]: 64%; TGA % Peak IIa, 10 nM Ab, 10 min pre-incubation [7]: 30%; TGA % Peak IIa, 50 nM Ab, 10 min pre-incubation [7]: 27%; TGA % Peak IIa, 100 nM Ab, 10 min pre-incubation [7]: 26%; TGA ETP, 10 nM Ab, 10 min pre-incubation [7]: 1250 nM·min; TGA ETP, 50 nM Ab, 10 min pre-incubation [7]: 1170 nM·min; TGA ETP, 100 nM Ab, 10 min pre-incubation [7]: 1100 nM·min; TGA Lag Time, 10 nM Ab, 10 min pre-incubation [7]: 10.4 min; TGA Lag Time, 50 nM Ab, 10 min pre-incubation [7]: 14.2 min; TGA Lag Time, 100 nM Ab, 10 min pre-incubation [7]: 15.1 min; TGA Peak IIa, 10 nM Ab, 10 min pre-incubation [7]: 78 nM; TGA Peak IIa, 50 nM Ab, 10 min pre-incubation [7]: 70 nM; TGA Peak IIa, 100 nM Ab, 10 min pre-incubation [7]: 68 nM; TGA ttPeak, 10 nM Ab, 10 min pre-incubation [7]: 20.2 min; TGA ttPeak, 50 nM Ab, 10 min pre-incubation [7]: 24.3 min; TGA ttPeak, 100 nM Ab, 10 min pre-incubation [7]: 25.3 min
B4 | 2 | 2 | 52 | 6 | 2 | 2 | 3 | 2 |  |  |  |  | 2 |  | TGA % ETP, 10 nM Ab, 10 min pre-incubation [7]: 28%; TGA % ETP, 50 nM Ab, 10 min pre-incubation [7]: 20%; TGA % Peak IIa, 10 nM Ab, 10 min pre-incubation [7]: 9%; TGA % Peak IIa, 50 nM Ab, 10 min pre-incubation [7]: 7%; TGA % Peak IIa, 100 nM Ab, 10 min pre-incubation [7]: 7%; TGA ETP, 10 nM Ab, 10 min pre-incubation [7]: 482 nM·min; TGA ETP, 50 nM Ab, 10 min pre-incubation [7]: 346 nM·min; TGA Lag Time, 10 nM Ab, 10 min pre-incubation [7]: 20.8 min; TGA Lag Time, 50 nM Ab, 10 min pre-incubation [7]: 28.4 min; TGA Lag Time, 100 nM Ab, 10 min pre-incubation [7]: 28 min; TGA Peak IIa, 10 nM Ab, 10 min pre-incubation [7]: 25 nM; TGA Peak IIa, 50 nM Ab, 10 min pre-incubation [7]: 17 nM; TGA Peak IIa, 100 nM Ab, 10 min pre-incubation [7]: 17 nM; TGA ttPeak, 10 nM Ab, 10 min pre-incubation [7]: 30.7 min; TGA ttPeak, 50 nM Ab, 10 min pre-incubation [7]: 38.9 min; TGA ttPeak, 100 nM Ab, 10 min pre-incubation [7]: 40.2 min
B5 | 2 | 3 | 48 | 8 | 3 | 2 | 2 | 11 | 53 | 44 | 41 | 42 | 3 |  | 
B6 |  |  |  |  |  |  |  |  |  |  |  |  |  | 131 | Kd [8]: 0.36 nM; Kd [9]: 0.21 nM; binding result [10]: no binding; binding result [11]: no binding (tested: 15 µg/ml (100 nM)); Kd [12]: 1.67 nM; Kd [13]: 1.36 nM
B7 |  |  |  |  |  |  |  |  |  |  |  |  |  | 41.4 | Kd [15]: 21 nM
B8 |  |  |  |  |  |  |  |  |  |  |  |  |  | 6.12 | Kd [15]: 2.4 nM
